# Values quoted from earlier work in publication PMC4193333.
# pKd: −log10 of the molar value.
# Biological target: BK channel alpha subunit (UniProt Q12791)
# Sequence of UniProt Q12791 (Q12791 whole entry): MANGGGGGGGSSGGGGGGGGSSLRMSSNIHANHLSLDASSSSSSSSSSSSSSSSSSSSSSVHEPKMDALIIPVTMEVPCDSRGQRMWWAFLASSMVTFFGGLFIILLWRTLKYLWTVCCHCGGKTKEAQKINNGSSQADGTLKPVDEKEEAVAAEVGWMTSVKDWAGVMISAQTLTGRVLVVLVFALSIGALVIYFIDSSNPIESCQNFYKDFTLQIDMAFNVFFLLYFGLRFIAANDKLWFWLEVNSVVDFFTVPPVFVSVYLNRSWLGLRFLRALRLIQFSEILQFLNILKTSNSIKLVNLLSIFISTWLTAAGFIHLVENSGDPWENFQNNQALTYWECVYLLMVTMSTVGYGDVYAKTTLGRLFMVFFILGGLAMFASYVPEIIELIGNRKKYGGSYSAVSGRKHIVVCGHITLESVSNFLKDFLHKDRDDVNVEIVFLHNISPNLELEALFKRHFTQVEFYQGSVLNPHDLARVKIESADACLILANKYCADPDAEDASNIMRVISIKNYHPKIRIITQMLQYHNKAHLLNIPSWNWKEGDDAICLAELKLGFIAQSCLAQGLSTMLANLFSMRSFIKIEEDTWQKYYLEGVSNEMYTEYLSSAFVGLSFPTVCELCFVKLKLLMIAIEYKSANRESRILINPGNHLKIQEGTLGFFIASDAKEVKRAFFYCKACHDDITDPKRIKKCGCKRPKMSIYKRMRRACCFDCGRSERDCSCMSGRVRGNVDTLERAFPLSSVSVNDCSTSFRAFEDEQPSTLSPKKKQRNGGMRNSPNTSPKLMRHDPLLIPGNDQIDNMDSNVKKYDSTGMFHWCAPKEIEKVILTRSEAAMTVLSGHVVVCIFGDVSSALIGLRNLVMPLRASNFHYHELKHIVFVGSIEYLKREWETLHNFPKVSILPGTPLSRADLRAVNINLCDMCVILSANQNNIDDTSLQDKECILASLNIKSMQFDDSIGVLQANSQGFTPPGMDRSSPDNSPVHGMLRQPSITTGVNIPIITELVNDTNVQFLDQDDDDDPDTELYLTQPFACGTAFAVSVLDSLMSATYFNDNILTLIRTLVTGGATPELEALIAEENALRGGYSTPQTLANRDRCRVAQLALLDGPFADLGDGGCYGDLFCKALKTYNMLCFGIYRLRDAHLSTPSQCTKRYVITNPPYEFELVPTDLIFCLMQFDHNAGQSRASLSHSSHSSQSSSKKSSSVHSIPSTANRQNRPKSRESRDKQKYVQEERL
substance,measurement,value
Iberiotoxin (IbTX) (from UniProt P24663),pKd,8.82
